Assay results from publication PMC4005879 (Bioorganic & medicinal chemistry letters, 2014).
Read-outs that look alike come from different tables or passages of the source.

Key:
[1] = target: capsid assembly inhibitor (CAI) peptide; experiment: ITC
HIV-1 [2] = conditions: read-out: TZM-b1 cells IC50; single-cycle assay, TZM-bl cells; ref [8]; cited from earlier work
HIV-1 [3] = conditions: read-out: MT-2 cells IC50, multi-cycle infection assay, ref [8]; cited from earlier work
[4] = target: HIV capsid protein p24 CTD (Human immunodeficiency virus 1) (UniProt O93182); conditions: cited from earlier work

C-terminal domain (CTD) of the HIV capsid protein p24, M184A/W185A (domain or fragment)
Kd [1]: 8.3 µM
dH [1]: -9.45 kcal/mol
stoichiometry N [1]: 0.98

ISFR8ELLDYYS5ESGS (sidechain bridge or staple) [NYAD-36]
IC50 (HIV-1 [2]): 2 ± 0.4 µM
IC50 (HIV-1 [3]): 1.5 ± 0.17 µM

CAI
Kd [4]: 15 µM
